# According to the DeepSol protein solubility set:
# Test: soluble on expression in E. coli; label from the status in PepcDB or PDB records
row,Sequence,soluble on expression in E. coli
1,MAHHHHHHMFRSEAHFRMLANLRFLELQKLLLNRFQIFKNEEITVLKKGSMKTILYEWAEFLTKEQRATNMTHIPDEVLQSKRVADILRDDVECRWLVGRINVGAVSGVSGVSPPSPLSGAHLARDDAALSKVDQLHLDEYPDLFHYEYPQFPYDYYDKKKMSNFYSLMKFPYNDILNISKRIKREVSPPGGDAKEGEMRQMEEPRGGALESAGVDVVDDDFVSYSSNSYVYAPSEMETSKENYHE,not soluble
2,MGSDKIHHHHHHMKAVIFDDFGSPDVLRIADVQRPVATTATVLVKVMAVAVNHVDTFVRSGTFKTALAAPHVAGRDLVGEVVASSQPDFQIGDQVWTNSMGYEGRMGATAEYVAVPTDRLYHVPDGVAPMPLVAAVHSAATAAIVLNDVMEICSGQTLLIEGAAGNVGRKLIQLAHQMGVTVVITASPRDFARCQQLGSTACYDYHAGFADQLTTDQWTFDHVIDTSGRVPLAINLALLRLGGQVTLITAPQDNQFEFPVRQFYMSQQRITGFVISHATVDQLAQAASRLNRAFSAGLLLDDQVSQRYFKDAAQCHAQLEAGTDHHQRFVLLPS,not soluble
3,MGSDKIHHHHHHMMAVAHKGEAQFDFYWRQQGEWVEEPNQRRGGESGVQRLNDADGKLLYAKRQVGHIYRSLLHPFGRPTVLRELDALNSFEQLGVRVPRIVFCGAQRDAEHQWRALLVSEALDGFVELDTWHAEGARERYPQVVHERMLKDLADNLARMHLGHWQHGCLYGKHVFIKVIGEGEQARVEVALLDLEKCRRRISCQRAAGNDLRQLRRHSSLNDAEWRTLLYFYKMAFGSAVKGLE,not soluble
4,GPTSPGPALTDWARVREELASTGPPVVAMPVVIKTEGPAWTPLEPKLITRLADTVRTKGLRSPITMAEVEALMSSPLLPHDVTNLMRVILGPAPYALWMDAWGVQLQTVIAAATRDPRHPANGQGRGERTNLNRLKGLADGMVGNPQGQAALLRPGELVAITASALQAFREVARLA,soluble
5,MKIVFLECSVELVPRSLWSHPQVLKSARRYGIEPGDLLLDKSLHYNAMAELPAKWKRGRPDILHVALLTTTDSPLYNEGLLRIYFQVYDGRLFEVGTGVRVPKNYERFRGLVAQLLKTERVPPGEGEALIRLHSRSLAEFVEREGRFILMWEKGSPTTTTYVAARALSTGLPIGVGCFPRGEFKRSTLRKASEAYSIMGGAPLKTWGVASRIVYALERLKSPFTLEHHHHHH,soluble
6,GPGSMWAQQLSLQKQTTKISPADKDAQALITANVFIEGNRMRVLKSMEQYQAVADSAYWNYGYMGGSMVTTMAICLSLSGRLPLLQRYASWISLAGGYFGGKAALGIHNARNLSHVVNTIDSAIVETRKMDEQYNFKIPDYAREVEALQRRKFELLPTSAEAIEARKNDLNNMPLDEKVDALVEAYEKRRQAVGKE,not soluble
7,MATIDSMNKDTTRLSDGPDWTFDLLDVYLAEIDRVAKLYRLDTYPHQIEVITSEQMMDAYSSVGMPINYPHWSFGKKFIETERLYKHGQQGLAYEIVINSNPCIAYLMEENTITMQALVMAHACYGHNSFFKNNYLFRSWTDASSIVDYLIFARKYITECEERYGVDEVERLLDSCHALMNYGVDRYKRPQKISLQEEKARQKSREEYLQSQVNMLWRTLPKREEEKTVAEARRYPSEPQENLLYFMEKNAPLLESWQREILRIVRKVSQYFYPQKQTQVMNEGWATFWHYTILNHLYDEGKVTERFMLEFLHSHTNVVFQPPYNSPWYSGINPYALGFAMFQDIKRICQSPTEEDKYWFPDIAGSDWLETLHFAMRDFKDESFISQFLSPKVMRDFRFFTVLDDDRHNYLEISAIHNEEGYREIRNRLSSQYNLSNLEPNIQIWNVDLRGDRSLTLRYIPHNRAPLDRGRKEVLKHVHRLWGFDVMLEQQNEDGSVELLERCPPRMGNL,not soluble
8,MEFVPEQHPPITETTTGAASNGCPVVGHMKYPVEGGGNQDWWPNRLNLKVLHQNPAVADPMGAAFDYAAEVATIDVDALTRDIEEVMTTSQPWWPADYGHYGPLFIRMAWHAAGTYRIHDGRGGAGGGMQRFAPLNSWPDNASLDKARRLLWPVKKKYGKKLSWADLIVFAGNCALESMGFKTFGFGFGRVDQWEPDEVYWGKEATWLGDERYSGKRDLENPLAAVQMGLIYVNPEGPNGNPDPMAAAVDIRETFRRMAMNDVETAALIVGGHTFGKTHGAGPADLVGPEPEAAPLEQMGLGWKSSYGTGTGKDAITSGIEVVWTNTPTKWDNSFLEILYGYEWELTKSPAGAWQYTAKDGAGAGTIPDPFGGPGRSPTMLATDLSLRVDPIYERITRRWLEHPEELADEFAKAWYKLIHRDMGPVARYLGPLVPKQTLLWQDPVPAVSHDLVGEAEIASLKSQIRASGLTVSQLVSTAWAAASSFRGSDKRGGANGGRIRLQPQVGWEVNDPDGDLRKVIRTLEEIQESFNSAAPGNIKVSFADLVVLGGCAAIEKAAKAAGHNITVPFTPGRTDASQEQTDVESFAVLEPKADGFRNYLGKGNPLPAEYMLLDKANLLTLSAPEMTVLVGGLRVLGANYKRLPLGVFTEASESLTNDFFVNLLDMGITWEPSPADDGTYQGKDGSGKVKWTGSRVDLVFGSNSELRALVEVYGADDAQPKFVQDFVAAWDKVMNLDRFDVR,soluble
9,GSMAGEDVGAPPDHLWVHQEGIYRDEYQRTWVAVVEEETSFLRARVQQIQVPLGDAARPSHLLTSQLPLMWQLYPEERYMDNNSRLWQIQHHLMVRGVQELLLKLLPDDRSPGIHRD,soluble
10,MDTLQGMRVFARVVDSGSFTSAAQALDLSTAQVSRLISDLEAHLQTRLLHRTTRRLALTEAGERYLERCRGILEDIEVAEAEAAGAHIRPCGRLRVQSLMGMGQHHLVPMIARYGALFPDVVIELTLSQRNPDMLEEGQDVLITGERQLPDSEFVAQRLGSIHSVLCASPGYLQQHGVPRSVDDLERHVCLRLQDPAYPEGWIFADEQGERTVSPQNTFMVNVAEVMAQAAKADLGIALLPSYVAAAALRNGELLRVLPGHAMHQRTIYALYPSRRYLDAKIRTWVDLLQQELPQAFARDETTMQSSSYCAQ,not soluble
11,GFPERELPRPGASRPAEKSRPPEAKGAQPADAWKAGRPRSEEDNELNLPNLAAAYSSILRSLGEDPQRQGLLKTPWRAATAMQFFTKGYQETISDVLNDAIFDEDHDEMVIVKDIDMFSMCEHHLVPFVGRVHIGYLPNKQVLGLSKLARIVEIYSRRLQVQERLTKQIAVAITEALQPAGVGVVIEATHMCMVMRGVQKMNSKTVTSTMLGVFREDPKTREEFLTLIRS,soluble
12,MGSDKIHHHHHHMQMDLETAVMKKKESLNETDKAIVSYLLKYPEDASKLSLMELAQKLYVSKSAIFRLSKKLGLSGFSELKFELTELTNKKVQNKKYVQELDFNNNLHQIIDETFKYFKDANFHDLFIDLDNAETIYIYSTGWQQQIIAEYLAHSFFLIGKKAIILPSAKDEVAMLGRSIEENDMLFVISFGGFNKTIIEELKKIDTVTDKLKFVSLTSWQPGKIASLSDYSFFFKTTPFQISNQNAVTFSSAYVLIDLIINEYGKHCNSKK,not soluble
13,MNCWMRSPRWPPTTDGSNSSQWVTPCSQMDRSVFSPTPSVPMKLFSTRTLSGTGWAVCKPVGATGVVKGLQRVRLAGLRPAHREDIAIHELVFQRDDDGAIAVCTRRLRLVERLLAKRTDEHRHTGWMGVGHIHRWGAVNECSLAIRMRWLRAPDYVYNTPRCAQLLTSESTKPNGTHGHTMTTFLLATSSVHVTAAAADYLQHRLDSAADHDIVVVAVHDPDAPSRDAGDAVNVARSRLAAFMPATETRDGAPVTEILAAVDEHDPDELLIGPHRGTDDSDGVGSMARDLLTNVDRPVIVLPLP,not soluble
14,MNCRLGCGACCIAPSISSVIPGMPNGKAAGERCVQLSDDNLCLIFGSPERPAVCCDFEASLDVCGHSNEEALWLITNLESQTSLEHHHHHH,not soluble
15,MRGSHHHHHHTDPALRADLSLLKALSEADAIASSEQEVRQILLEEADRLQKEVRFDGLGSVLIRLNESTGPKVMICAHMDEVGFMVRSISREGAIDVLPVGNVRMAARQLQPVRITTREECKIPGLLDGDRQGNDVSAMRVDIGARSYDEVMQAGIRPGDRVTFDTTFQVLPHQRVMGKAFDDRLGCYLLVTLLRELHDAELPAEVWLVASSSEEVGLRGGQTATRAVSPDVAIVLDTACWAKNFDYGAANHRQIGNGPMLVLSDKSLIAPPKLTAWVETVAAEIGVPLQADMFSNGGTDGGAVHLTGTGVPTVVMGPATRHGHCAASIADCRDILQMQQLLSALIQRLTRETVVQLTDFRGLCGR,soluble
